From patent publication US20240091307A1, “COMBINATION THERAPIES OF AMUC_1100 AND IMMUNE CHECKPOINT MODULATORS FOR USE IN TREATING CANCERS” (COMMBIO THERAPEUTICS CO., LTD., priority 2020, published 2024)
Changes are numbered by the printed parent chain. Names may count otherwise.

Key:
TLR2 [1] = biological target: T1, TLR2 (Homo sapiens, UniProt O60603); experiment: TLR2 reporter gene assay in HEK293 cells (QUANTI-Blue); type: cell-based; parameters: host or cells: HEK293; settings: HEK293 cells expressing human TLR2 and reporter gene; FIG. 3B
T1 sequence (O60603 21-784): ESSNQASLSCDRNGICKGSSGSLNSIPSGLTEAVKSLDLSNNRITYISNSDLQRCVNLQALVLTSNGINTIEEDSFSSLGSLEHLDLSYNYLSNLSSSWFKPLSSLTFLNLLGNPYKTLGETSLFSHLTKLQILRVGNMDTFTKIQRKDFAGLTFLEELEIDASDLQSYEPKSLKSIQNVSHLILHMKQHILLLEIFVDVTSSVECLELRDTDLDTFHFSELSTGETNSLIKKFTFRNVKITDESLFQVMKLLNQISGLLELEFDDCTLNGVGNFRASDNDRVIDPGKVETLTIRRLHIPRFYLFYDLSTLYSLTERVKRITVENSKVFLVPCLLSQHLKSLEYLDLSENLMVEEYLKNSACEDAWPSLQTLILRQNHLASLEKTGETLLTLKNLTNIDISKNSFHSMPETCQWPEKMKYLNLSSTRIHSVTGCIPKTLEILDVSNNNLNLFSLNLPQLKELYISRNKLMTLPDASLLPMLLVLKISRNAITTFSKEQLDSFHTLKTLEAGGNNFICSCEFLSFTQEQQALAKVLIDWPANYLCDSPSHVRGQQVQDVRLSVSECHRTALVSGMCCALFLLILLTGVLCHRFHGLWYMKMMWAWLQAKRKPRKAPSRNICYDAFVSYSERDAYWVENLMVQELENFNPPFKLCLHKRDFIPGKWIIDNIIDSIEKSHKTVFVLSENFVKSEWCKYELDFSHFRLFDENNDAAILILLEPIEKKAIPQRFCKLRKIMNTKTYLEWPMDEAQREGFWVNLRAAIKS
Description: HEK293 cells expressing human TLR2 receptor and its reporter gene (InvivoGen, hkb-htlr2) were seeded in a 96-well plate and treated by […] (31-317) or mutant recombinant Amuc_1100 (31-317, Y289A). The reporter gene activity was detected by QUANTI-Blue™ (InvivoGen, rep-qbs2), and the cell viability was detected by CellTiterGlo (Promega, G7573) by following the reagent kits' instruction. The results were shown in FIG. 3B (Pam3CSK4 is the positive control for TLR2 ligand). […] All agents show no significant impact on cell viability.

[2] = test system: spontaneous breast cancer in MMTV-PyVT transgenic C57BL/6 female mice; experiment: Spontaneous breast cancer model, tumor growth rate and H&E staining; type: in vivo; settings: Amuc_1100 proteins 3 μg/kg oral gavage daily 4 weeks; anti-PD-1 10 mg/kg i.v. every three days 3 weeks; FIG. 4, FIG. 5
Description: The MMTV-PyVT transgenic C57BL/6 female mice were used to develop spontaneous breast cancer. Mice at age of 9.5 weeks were randomly divided into 6 groups with 4-5 mice in each group and were subjected to agent treatment. The mice in the control group were treated with PBS by oral gavage daily for 4 weeks, plus PBS i.v. injection daily after one week of oral gavage for 3 weeks. […] All the spontaneously developed tumors were monitored. Tumor sizes were measured twice every week. The health status of mice was closely monitored. Tumor growth rate of each tumor in mouse following agent treatment was analyzed. […]

[3] = test system: proteases trypsin and α-chymotrypsin; experiment: Protease digestion stability (trypsin and α-chymotrypsin, SDS-PAGE, Coomassie blue); type: in vitro ADME; settings: trypsin 0.01 mg/ml and α-chymotrypsin 0.01 mg/ml, 37° C., 30 min; versus wild type; FIG. 3A
Description: Recombinant Amuc_1100 wild type (WT) and mutant protein are digested by proteases trypsin (0.01 mg/ml) and α-chymotrypsin (0.01 mg/ml) at […] for 30 min. The samples are subjected to SDS-PAGE gel electrophoresis and Coomassie blue staining. Lane A: Amuc_1100 (31-317, Y289A) without proteases; Lane B: Amuc_1100 (31-317, Y289A) with proteases; Lane C: Amuc_1100 (31-317, WT) without proteases; Lane D: Amuc_1100 (31-317, WT) with proteases; MW: molecular weight marker (KD).)
Some mutants of the […] (31-317) may reduce protein degradation by proteases. The amino acid sequence (SEQ ID NO: 146) and nucleotide sequence (SEQ ID NO: 147) of Amuc_1100 (31-317, Y289A) with 6×His tag at the C-terminus expressed by the plasmid described above (FIG. 1) were shown in FIG. 2. The recombinant Amuc_1100 (31-317) protein and mutant protein (31-317, Y289A) were digested by proteases trypsin (0.01 mg/ml) and α-chymotrypsin (0.01 mg/ml) at 37° C. for 30 min. The samples were then subjected to SDS-PAGE gel electrophoresis and Coomassie blue staining.

[4] = Body weight gain in mouse model; type: in vivo, mice; settings: 3 μg/kg oral gavage daily for 4 weeks; compared to PBS control group
Description: Mice at age of 9.5 weeks were randomly divided into 3 groups with 4-5 mice in each group and were subjected to agent treatment. The mice in the control group and test groups were treated with PBS, Amuc_1100 (31-317), or Amuc_1100 (31-317, Y289A) (3 μg/kg) by oral gavage daily for 4 weeks, respectively. The body weight of each mouse in each group was measured twice every week.

TLR2 [5] = biological target: T1, TLR2; experiment: TLR2 reporter assay of Amuc_1100 secreted from engineered EcN; type: cell-based; parameters: expressed in transfected cells; host or cells: HEK293; settings: HEK293/TLR2 reporter cells, 24 hours, colorimetric; protein isolated from CBT1108 culture media; FIG. 17
Description: The genetically engineered bacteria EcN strain CBT1108 obtained in Example 6 were cultured, and the culture media was collected at late exponential growth stage. The […] (31-317) protein was isolated from the culture media by his-tag antibody-containing resin column. The endotoxin was removed from the isolated Amuc_1100 (31-317) protein.
The Amuc_1100 (31-317) activity was tested by TLR2 reporter assay. Specifically, HEK293/TLR2 reporter cells were stimulated in 96-well plate with certain amount of protein for 24 hours, the reporter enzyme's substrate was added into the cell media and the activity was measured by colorimetric method.

B1: Amuc_1100 (31-317, Y289A): Amuc_1100 (31-317) mutant protein with single point mutation Y289A, numbering relative to SEQ ID NO: 1 (protein)
chain: MIVNSKRSELDKKISIAAKEIKSANAAEITPSRSSNEELEKELNRYAKAVGSLETAYKPFLASSALVPTTPTAFQNELKTFRDSLISSCKKKNILITDTSSWLGFQVYSTQAPSVQAASTLGFELKAINSLVNKLAECGLSKFIKVYRPQLPIETPANNPEESDEADQAPWTPMPLEIAFQGDRESVLKAMNAITGMQDYLFTVNSIRIRNERMMPPPIANPAAAKPAAAQPATGAASLTPADEAAAPAAPAIQQVIKPAMGKEQVFVQVSLNLVHFNQPKAQEPSED
EC50 for TLR2 activation (TLR2 [1]): 0.951 µg/mL
tumor growth inhibition [2]: partially inhibited tumor growth
resistance to enzyme digestion [3]: more resistant to enzyme digestion compared to wild type Amuc_1100 protein
changes in body weights [4]: no significant changes in body weights

B2: secreted Amuc_1100 (31-317) from genetically engineered EcN: Amuc_1100 protein isolated from culture media of EcN strain CBT1108 by his-tag antibody resin, endotoxin removed (protein)
chain: B1 chain with A260Y
TLR2 signal stimulation (TLR2 [5]): stimulated TLR2 signal

B3: Amuc_1100 (31-317): Naturally-occurring fragment (residues 31-317) of Akkermansia muciniphila outer-membrane protein Amuc_1100; recombinant protein (protein)
chain: B1 chain with A260Y
EC50 for TLR2 activation (TLR2 [1]): 0.535 µg/mL
tumor growth inhibition [2]: partially inhibited tumor growth
changes in body weights [4]: no significant changes in body weights
